Results taken from PMC10834429, “HRDE-2 drives small RNA specificity for the nuclear Argonaute protein HRDE-1” (Nature Communications, 2024).
Substitutions are numbered along the chain they refer to.

Assays:
GFP::3xFLAG::HRDE-1 = molecular target: T1, GFP::3xFLAG::HRDE-1 (C. elegans, UniProt Q09249 1-1032); test: co-IP; lysate of adult animals; anti-FLAG beads precipitate GFP::3xFLAG::HRDE-1, HRDE-2::2xTy1::GFP detected with anti-Ty1; wild-type, mut-2 mutant and hrde-1(HK-AA) backgrounds; band intensities by ImageJ normalized to HRDE-1 immunoprecipitated and to wild-type; conditions: partners not purified
T1 construct: HRDE-1/WAGO-9, germline nuclear Argonaute, C. elegans, tagged in the worm strain; Tag ends are read from the strain notation GFP::3xFLAG::HRDE-1; also called HRDE-1/WAGO-9; wild-type HRDE-1; source: C. elegans strain hrde-1(tor125[GFP::3xFLAG::hrde-1]), adult animals, in lysate; not shown: GFP, N-terminal, kept; 3xFLAG, N-terminal, kept
T1 sequence (looked up): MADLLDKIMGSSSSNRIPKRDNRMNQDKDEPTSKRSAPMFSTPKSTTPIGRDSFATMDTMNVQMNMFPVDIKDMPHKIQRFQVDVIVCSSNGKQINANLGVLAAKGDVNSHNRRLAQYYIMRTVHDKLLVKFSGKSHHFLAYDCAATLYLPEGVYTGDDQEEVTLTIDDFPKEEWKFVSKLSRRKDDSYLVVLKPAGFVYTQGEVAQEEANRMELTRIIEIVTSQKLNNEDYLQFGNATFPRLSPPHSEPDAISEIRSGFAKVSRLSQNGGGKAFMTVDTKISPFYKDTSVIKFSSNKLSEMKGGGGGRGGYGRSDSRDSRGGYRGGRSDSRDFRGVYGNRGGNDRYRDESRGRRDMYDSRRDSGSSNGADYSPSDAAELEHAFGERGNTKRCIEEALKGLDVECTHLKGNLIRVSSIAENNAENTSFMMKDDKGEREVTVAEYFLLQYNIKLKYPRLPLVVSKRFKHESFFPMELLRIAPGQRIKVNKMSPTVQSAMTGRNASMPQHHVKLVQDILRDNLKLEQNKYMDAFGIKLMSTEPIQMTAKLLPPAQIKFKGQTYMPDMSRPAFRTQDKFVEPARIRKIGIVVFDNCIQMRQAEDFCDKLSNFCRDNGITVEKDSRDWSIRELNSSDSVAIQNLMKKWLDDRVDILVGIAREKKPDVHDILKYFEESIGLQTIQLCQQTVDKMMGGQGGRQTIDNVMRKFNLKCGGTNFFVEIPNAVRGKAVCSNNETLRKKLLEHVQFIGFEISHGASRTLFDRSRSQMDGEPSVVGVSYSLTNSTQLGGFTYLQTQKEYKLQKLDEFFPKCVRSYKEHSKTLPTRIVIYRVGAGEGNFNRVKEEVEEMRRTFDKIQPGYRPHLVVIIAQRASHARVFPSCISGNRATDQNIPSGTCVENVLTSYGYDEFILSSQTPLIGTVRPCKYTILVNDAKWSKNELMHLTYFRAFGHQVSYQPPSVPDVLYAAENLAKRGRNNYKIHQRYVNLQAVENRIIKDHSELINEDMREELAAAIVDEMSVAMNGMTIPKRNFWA

[1] = molecular target: T2, GFP::3xFLAG::HRDE-1(HK-AA) (C. elegans, UniProt Q09249 1-1032, H664A | K668A); test: as above; conditions: partners not purified
T2 construct: Tag ends are read from the strain notation; Repair template is in Supplementary Data 3; source: C. elegans strain hrde-1(cmp309[HK-AA]) made in hrde-1(tor125[GFP::3xFLAG::hrde-1]), adult animals, in lysate; not shown: GFP, N-terminal, kept; 3xFLAG, N-terminal, kept
T2 sequence (looked up): T1 sequence (looked up) with H664A, K668A

B1: HRDE-2::2xTy1::GFP (natural protein, C. elegans, UniProt Q22058 1-305, looked up)
chain: MSQNSDTFDSGLQMEVHKMAEADNSSVQQKFDAIRDYIGRKETTIILCEHDDSRKIKLTLNKQRMESSMFLTEMPDGGIQEKTKFHRNGLAVCSYNAFDEVDLPLADSYIFYGLPSNVEAFPRMLHGIEKSAHKENKIVFIDIVVSILEKIQIKVVSFELYNRKCTVPTWVAELVITYCAPIEEQQQRIEEIRRTRASVPVAISDAANGSAEMVPSNTTGSSGSPMSTAPVPAAKKEKVQYESIRQIRPNAQGRYFVPARMINMDIEMSNDEYSPDESENDENEYDYENAARYDDGYDEGHEYCQ
notes: HRDE-2 (HRDE-2/ENRI-3), C. elegans, tagged in the worm strain; Tag ends are read from the strain notation HRDE-2::2xTy1::GFP; also called HRDE-2/ENRI-3; source: C. elegans strain hrde-2/enri-3(tag1660[hrde-2/enri-3::2xTy1::GFP]), adult animals, in lysate; not shown: 2xTy1, C-terminal, kept; GFP, C-terminal, kept
In the case of B1, the “fold change of co-precipitated HRDE-2 in the mut-2 mutant against wild-type” value (GFP::3xFLAG::HRDE-1) is reported as roughly 2.18 fold and the “fold change of co-precipitated HRDE-2 against wild-type HRDE-1” value [1] is reported as roughly 3.3 fold.
